Experiment: label from the status in PepcDB records

Row | Sequence | protein production
1 | MNDHTAAIAAHFDQLAPNLDRWRRRNRTYYRDLEKLHRFWIPTGSRVLQVGSGLGDLLATVEPSFGIGIDVSPQAVAIAQQRHPQLQFHCLAAEELTPEAIGNPEPFDAIILTGVLSYLTDIQVVLEQLQAFCHPRTRLILGFHNFLWQPLLTAAEKVGQRSPQPPESWLGMQDVLNLLTLTGYEPIKQGRRFLLPRQIPLLTGWINRWISPLPVIEHLALTNYVIARPLAQPRSQPTVSVIVPARNEAGNIAAAVERLPELGAETELIFVEGHSRDQTWETIEQTVAEYQGPLKLLACRQTGKGKADAVRLGFDKASGDILMILDADLTVQPEDLGHFYRAIASGRGEFINGSRLVYPRSRLAMPGLNTLANRTFALIFSFLLGQPLKDTLCGTKVLWKTDYDRVAAGRKYFGDFDPFGDFDLLFGAAKLGLEIVEVPVRYQERSYGSSNIAHVREGLILARMCLYAAGKLKFPH | failed
2 | MSLEWCKNRLEITGRSVFVDIMQQWVTGEEVPLYRHAIQQSIRLFLAGCAGILKPVKCMEYPPFPRLVSHGTGSAVASNLAFQHWLDLLLKDAVLDGDTIRQIDRIYLQSGIASVKWETIPEGARQIITQLMARQYPDWFGVASWSSHINGADCWTKLGVMQEHACNCDMLMIIPTRLAIELNGNSQLLTGVSTTHDLYSHLYGMAWPSGQNIIWQRDRINSLRLDFDSPSYPPSAELMGELSAVFDCEIRHWYQEPVNGIRGYDCYDRGDHVDSGEYGAGPFLPPLKVEEVTVNGQEEAAEGHHHHHH | not failed
3 | MRRAGYLHLYGLNLVFDRVGKGPPVLLVAEEASRWPEALPEGYAFYLLDLPGYGRTEGPRMAPEELAHFVAGFAVMMNLGAPWVLLRGLGLALGPHLEALGLRALPAEGVEVAEVLSSKLSYGNIDLGGNL | not failed
4 | MNMYRVLLIILGWISVVLATLGVVLPLLPTTPFLLLAAWCFARSSPRFHNWLLHRSWFGSYLRHWQQHRALPPGAKWKAVTMILLTFALSLWLVKLVWVRILLLVILTILLTFMLRLPVVDPEQQTQGADPKR | failed
5 | MRNMQEKGVSEKEILEELKKYRSLDLKYEDGNIFGSMCSNVLPITRKIVDIFLETNLGDPGLFKGTKLLEEKAVALLGSLLNNKDAYGHIVSGGTEANLMALRCIKNIWREKRRKGLSKNEHPKIIVPITAHFSFEKGREMMDLEYIYAPIKEDYTIDEKFVKDAVEDYDVDGIIGIAGTTELGTIDNIEELSKIAKENNIYIHVDAAFGGLVIPFLDDKYKKKGVNYKFDFSLGVDSITIDPHKMGHCPIPSGGILFKDIGYKRYLDVDAPYLTETRQATILGTRVGFGGACTYAVLRYLGREGQRKIVNECMENTLYLYKKLKENNFKPVIEPILNIVAIEDEDYKEVCKKLRDRGIYVSVCNCVKALRIVVMPHIKREHIDNFIEILNSIKRD | not failed
6 | MSEEIVLKAGGKIYQGWTKIGITRSLEAMSGAFDLEMTYKFLGNDAQYKAFIEPIKQGQACTVDIGGERVITGYVDDWVPSYDESTITISVSGRDKTADLVDCSIDYPSGQFNNQTLTQIADIVCKPFGIKVIVNTDVGEPFQRIQIEQGETPHELLARLAKQRGVLLTSDTFGNLVITRASKTKAGVSLILGDNVKAARGRFSWRQRFSKFTIKAAGAAHGQWDSAGLPTVGGIKADVTDSEIGRYRPLIIVNEEVTTAEGAAKRGQWERQRSIGKSNMAEYTVTGWRIPQTGKLWNINTLVPVIDEIMGLDEEMLIASILFSEDDAGRLAVISVVRPDAMDIPAQIVKDTKLGGSTW | not failed
7 | MLLHLSDLHFGTEKPECLTAIEDFCRQHRPEVIVVSGDLTQRARFIQFYNCKQFLESLNVPYLVVPGNHDIPLYHLWNRFFSPFVRYQFFFGELEPTLETEHFFIVGVNSIRRRYHTRGYISLEQIQKTNEILKQAPSHKLKLVVLHQPFYTPPDQPHGIKDCPVLGRMALDNWSKSGLFGVLHGHLHKTAVYDLTQIYQLRVDESVYDIHAGTATSYRLYKNLPNSFNVILNDGRVEHYWFDPASKAFVLKTDLYEK | failed
8 | MAAPVVVAPAINLQHMDLPEGNEDVAAVLQTSTQRWLNAAEWSILYNNHNLFPESNSFTIPIEVEGLYRVDNRFNQDSNTWRNTSAPSTCKNAINFYNVRIATGLYRFDDDGDIVMDAEVQGGWVLCRKTVRNRGGGVLTFAHYMWVLV | failed
9 | DAGGGVGKELVDLKIIWNKTKHDVKVPLDSTGSELKQKIHSITGLPPAMQKVMYKGLVPEDKTLREIKVTSGAKIMVVGSTI | not failed
10 | MRGLSRRVQAMKPSATVAVNAKALELRRQGVDLVALTAGEPDFDTPEHVKEAARRALAQGKTKYAPPAGIPELREALAEKFRRENGLSVTPEETIVTVGGKQALFNLFQAILDPGDEVIVLSPYWVSYPEMVRFAGGVVVEVETLPEEGFVPDPERVRRAITPRTKALVVNSPNNPTGAVYPKEVLEALARLAVEHDFYLVSDEIYEHLLYEGEHFSPGRVAPEHTLTVNGAAKAFAMTGWRIGYACGPKEVIKAMASVSSQSTTSPDTIAQWATLEALTNQEASRAFVEMAREAYRRRRDLLLEGLTALGLKAVRPSGAFYVLMDTSPIAPDEVRAAERLLEAGVAVVPGTDFAAFGHVRLSYATSEENLRKALERFARVLGRA | not failed
11 | MISRHLQNNLMSVDPASSQAMELSDVTLIEGVGNEVMVVAGVVVLILALVLAWLSTYVADSGSNQLLGAIVSAGDTSVLHLGHVDHLVAGQGNPEPTELPHPSEGNDEKAEEAGEGRGDSTGEAGAGGGVEPSLEHLLDIQGLPKRQAGAGSSSPEAPLRSEDSTCLPPSPGLITVRLKFLNDTEELAVARPEDTVGALKSKYFPGQESQMKLIYQGRLLQDPARTLRSLNITDNCVIHCHRSPPGSAVPGPSASLAPSATEPPSLGVNVGSLMVPVFVVLLGVVWYFRINYRQFFTAPATVSLVGVTVFFSFLVFGMYGR | failed
12 | LFQIVEQSFGRPLSPYEIETLNQWIDVDHHDLSVIQAALDEALSQNKLSFKYIDRILLNWKKNNVKTVDDSKK | not failed
13 | MIYLFTGNMGTGKTSRVVSMILNNEDGLFKMKLEDGTEVDRPLYFCHIDGLDKRQFKAHELTEEQIMSAPLRDVIPEGAVLIVDEAHYTYPVRAAGRPVPPYIQELTELRHHGHTVILMTQHPSQLDIFVRNLVSKHVHLERKAIGMKQYYWYKCVTSLDNPAGVSGVEVASWKPPKEAFKYYKSASQHQ | not failed
14 | MTFRYRGPSPKGDQPKAIAGLVEALRDGERFVTLLGATGTGKTVTMAKVIEALGRPALVLAPNKILAAQLAAEFRELFPENAVEYFISYYDYYQPEAYVPGKDLYIEKDASINPEIERLRHSTTRSLLTRRDVIVVASVSAIYGLGDPREYRARNLVVERGKPYPREVLLERLLELGYQRNDIDLSPGRFRAKGEVLEIFPAYETEPIRVELFGDEVERISQVHPVTGERLRELPGFVLFPATHYLSPEGLEEILKEIEKELWERVRYFEERGEVLYAQRLKERTLYDLEMLRVMGTCPGVENYARYFTGKAPGEPPYTLLDYFPEDFLVFLDESHVTVPQLQGMYRGDYARKKTLVDYGFRLPSALDNRPLRFEEFLERVSQVVFVSATPGPFELAHSGRVVEQIIRPTGLLDPLVRVKPTENQILDLMEGIRERAARGERTLVTVLTVRMAEELTSFLVEHGIRARYLHHELDAFERQALIRDLRLGHYDCLVGINLLREGLDIPEVSLVAILDADKEGFLRSERSLIQTIGRAARNARGEVWLYADRVSEAMQRAIEETNRRRALQEAYNLEHGITPETVRKEVRAVIRPEGYEEAPLEADLSGEDLRERIAELELAMWQAAEALDFERAARLRDEIRALEARLQGVRAPEPVPGGRKRKRR | not failed
15 | MFMFRNCAVLLVIGSICCFIYGLFRLHVEVEPNACRMTYMFGEPMFAKVGVRDGDQYPNYALYYYYEGLRQPLDPLKRRMTGAPVIFVPGNAGSYKQVRSLASVALRKAMSNDAGIHLDYYTIDYDEELSALYGGYLHRQQSYLKLCIRTILSIYEGRTEQPSIVLIGHSMGGKLAQSVLVDPAIGQHINTIISISTPLDQPVLNLDTQLEEFYDQTDAVLSKLRTATVPTMTTNVCDSLHQRPPSVQRMASQDSSARLDNVLLISTGGGNRDLLVRPGLTSSRFNDLHAMTSAIPKVSLSCDHLSAVWCLQFMQAINRFLFSVAYVREDRSSIAFGTNKQRNLQTALSTFVKPRRRQQNTVRFGAAGNWHEERRLVINKYFTNGLKGTFFDLIGLQRQERYRKAAIEALNVDDEDWLFGCSAEDNNKTGQLYCEKATSLMHLVQWLPNEDREPRSIALLDLHNLRKTYVHWTHLLVRLPPSAKRIGYNLDIYDPKERVTDIKMPRWYTMAKLPLINETLQGTLHHRVRISEMVDPYQSIRVIVEPLQCINPEYRVTARICVPWAAGFERFQTLKSFDQKPQLYVNVPTLVPRHYNTTLNPVTLELYLDPTCRYRISYEYSYSSALSRLVLEFYGWLPAHLVCVLLIVLRKQVETFYDVGTFRSLRPYVGYLQYTSLYIVTACRLLKKLIISSRVFPEPEPLDYSINVSIVIHCAAIALSLLATLGTWLALTLYGNAFYRLALRITRLSQATSNVMISIMTHLPITYGILTIATAMGTCSGVGLLLAFVFYFLMLSNAYKDYLEDFLWQKAANLVRGKPSAVTEQEDATEEQNEEQNALKQNDEQKQQQQEEEEPEACVGLQNFSFHVTLLLMLFVQLLLNAPSSLAWLRSRRHGINLPDPSLYPSIVVLASLSLLLQLRAPQKCQGYWMLSIAFYILAGVVLLYCQAAIYRLTYVIAGAFALLSAHQSLWILWGRVSRV | failed
16 | MKHEWRKFEKELYGVKAKPIFLEVEEQRFITIKGKGNPNDQDFSNRVSALYALAYGIKMAYKQAMKTEQDDRAVTDFAVYPLEGLWQQAKDAKEDTLEKDKLSYTIMIRQPEFITKELVDQALDRVKIKKPNSFYESISFESIKDGKCIQVLHIGSYDDEPQSFAKMDAFAKEHGLKRSSDIHREIYLSNAQRTEKSKLKTILRYQVEEK | failed
17 | MELDMGKVITAKRKEKSWTQEQLAQAVGVSTPAVSKWETGATYPDITLLPPIARALNTTVDELFSYQNELSDNDVSGFTQKATSLYEAEGFDAGWNYCQKLLQEFPNSIPLKFYLGNLFQSFMIMKTDLGKEDIQSCYRQAAILYEEVLLSGYPKFTYHATLILVGFYTMLNELDRAEELLDSLPKLKTDPDFLYPSIYALRGKNEEAMKLTQENIRRYISRVSHGLSLLGAFAREQEDMDKACTLAKMNLEITKLLGISREIAYADMIKIMVARGDKEAALTYLEEYTQHILELSYDYAKSPVFNRVTEKFQDPSYVKKVLAQSILIDKEYTPLKEEPRYLQIVHRLRQVIDTQTHTFRE | failed
18 | MTTKDISRPVCILGLGLIGGSLLRDLHAANHSVFGYNRSRSGAKSAVDEGFDVSADLEATLQRAAAEDALIVLAVPMTAIDSLLDAVHTHAPNNGFTDVVSVKTAVYDAVKARNMQHRYVGSHPMAGTANSGWSASMDGLFKRAVWVVTFDQLFDGTDINSTWISIWKDVVQMALAVGAEVVPSRVGPHDAAAARVSHLTHILAETLAIVGDNGGALSLSLAAGSYRDSTRVAGTDPGLVRAMCESNAGPLVKALDEALAILHEAREGLTAEQPNIEQLADNGYRSRIRYEARSGQRRAKESVSPTITSSRPVLRLHPGTPNWEKQLIHAETLGARIEVF | not failed
19 | MDANEKKEVIKKRFQEIAMSGGTCCSGGGCCGDSSSSDISRAIGYSEADIEAVPDANMGLGCGNPASIAELKPGDIVLDLGSGAGFDCFLAAQKVGNSGKVIGVDMTPEMVEKVQANARKYGYSNVEFRQGDIEALPVEDSSVDVIISNCVINLAPDKEKVFREAFRVLKLGGRLYISDLVLLDELPEDLKNDRDLLAGCVAGAVLKEEYLKLLKRAGFSVEILAEDPDISKSQYKGLPVESLKLKAWVLEHHHHHH | not failed
